{
  "source": "paper PMC2441797",
  "target": "recombinant PARP-1 (rPARP-1) (UniProt P09874 1-1014)",
  "sequence (P09874 whole entry)": "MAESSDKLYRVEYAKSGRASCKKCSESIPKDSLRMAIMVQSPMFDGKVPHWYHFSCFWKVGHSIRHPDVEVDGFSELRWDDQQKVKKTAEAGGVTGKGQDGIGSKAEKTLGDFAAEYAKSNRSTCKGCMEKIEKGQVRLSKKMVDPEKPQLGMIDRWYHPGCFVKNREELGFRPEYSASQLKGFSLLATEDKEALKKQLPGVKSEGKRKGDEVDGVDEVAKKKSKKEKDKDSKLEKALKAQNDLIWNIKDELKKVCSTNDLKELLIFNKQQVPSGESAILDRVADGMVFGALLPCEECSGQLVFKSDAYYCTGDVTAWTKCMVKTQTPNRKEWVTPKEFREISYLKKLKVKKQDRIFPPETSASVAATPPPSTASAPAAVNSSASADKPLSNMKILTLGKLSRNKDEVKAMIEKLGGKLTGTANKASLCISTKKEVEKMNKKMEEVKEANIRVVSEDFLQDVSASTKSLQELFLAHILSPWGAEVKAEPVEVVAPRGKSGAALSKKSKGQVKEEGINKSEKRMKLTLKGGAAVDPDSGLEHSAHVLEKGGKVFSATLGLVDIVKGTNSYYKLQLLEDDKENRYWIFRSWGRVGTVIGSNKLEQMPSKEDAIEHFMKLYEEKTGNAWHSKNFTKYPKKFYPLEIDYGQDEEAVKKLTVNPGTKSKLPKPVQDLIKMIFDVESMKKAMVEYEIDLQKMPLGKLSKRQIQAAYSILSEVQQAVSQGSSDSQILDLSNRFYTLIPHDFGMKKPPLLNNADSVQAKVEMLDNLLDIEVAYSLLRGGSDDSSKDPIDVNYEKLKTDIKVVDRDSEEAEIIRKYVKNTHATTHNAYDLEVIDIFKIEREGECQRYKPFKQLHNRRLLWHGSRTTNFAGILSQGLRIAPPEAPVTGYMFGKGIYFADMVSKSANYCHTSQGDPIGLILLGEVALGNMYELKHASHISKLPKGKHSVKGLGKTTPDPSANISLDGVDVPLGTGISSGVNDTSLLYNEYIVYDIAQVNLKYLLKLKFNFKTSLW",
  "experiment": "Southwestern blot",
  "data": [
    {"binder": "AGGGCGGTGTGGGAAGAGGGAAGAGGGGGAGG (structured_DNA)", "note": "[32R (KRAS NHE G-quadruplex), radiolabelled]", "values": [
      {"measurement": "binding result", "value": "binds"}
    ]}
  ]
}
